What was measured:
[1] = target: SARS-CoV-2 RBD, His6-tagged, for biolayer interferometry (SARS-CoV-2, UniProt P0DTC2); assay: BLI; conditions: both partners purified
[2] = target: Avi-tag biotinylated RBD of SARS-CoV-2 S protein (SARS-CoV-2, UniProt P0DTC2); assay: flow cytometry on cells; conditions: both partners purified

B1: 47D1 IgG (antibody, V domains shown)
VH: QVQLVQSGAEVKKPGSSVRVSCKASGGTFSTYPISWVRQAPGQGLEWMGGIIPIFGTAKSAQKFQGRVTITADEFTSTAYMEMSSLRSEDTAMYYCAREGRRYGSGWYISTGYFDYWGQGTLVTVSS
VL: QLVLTQPASVSGSPGQSIIVSCTGTSSDVGGYKFVSWYQQHPGKAPRVMIYDVSNRPSGVSNRFSGSKSGNTASLTISGLQADDEADYYCSSYTNSSTVVFGGGTKVTVL
Question: Does B1 bind [1]?
Answer: Result: binds

Question: Does B1 bind [2]?
Answer: Result: binds

— publication PMC8064889 (Cell Reports, 2021)
